Columns and labels:
[1] = target: Rhesus macaque (NHP) CD40 ectodomain fused to cohesin (Rhesus macaque, UniProt F6SNI1 21-193); test: multiplexed bead-based equilibrium competition; NHP CD40 ectodomain beads; competitor mouse 12E12 mAb 10 ng/ml, PE anti-mouse IgG, Bio-Plex 200
[2] = target: T1, human CD40 ectodomain fused to cohesin (human, UniProt P25942 22-193); test: multiplexed bead-based equilibrium competition; human CD40 ectodomain beads; competitor mouse 12E12 mAb 10 ng/ml, PE anti-mouse IgG, Bio-Plex 200
T1 construct: also called human CD40 coated beads; not shown: cohesin carrier (GenBank CP000568.1 nt 3622666-3623172) and the Nhe I site linker
T1 sequence (P25942 22-193 limits assumed, form in doubt): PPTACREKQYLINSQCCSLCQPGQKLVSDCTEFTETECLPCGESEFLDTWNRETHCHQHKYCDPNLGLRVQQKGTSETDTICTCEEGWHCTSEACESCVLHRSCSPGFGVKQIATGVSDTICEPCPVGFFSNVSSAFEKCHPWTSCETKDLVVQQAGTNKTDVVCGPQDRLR

Rhesus macaque (NHP) CD40 ectodomain fused to cohesin, sequence (F6SNI1 entry or part of it): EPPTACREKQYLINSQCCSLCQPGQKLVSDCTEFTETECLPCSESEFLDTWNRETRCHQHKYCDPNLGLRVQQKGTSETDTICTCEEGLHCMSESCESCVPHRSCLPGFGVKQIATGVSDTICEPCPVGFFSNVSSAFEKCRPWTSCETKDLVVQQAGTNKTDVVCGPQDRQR

B1: humanized αCD40 (humanized anti-human CD40 12E12 recombinant human IgG4 mAb) (antibody, V domains shown)
VH: EVQLVESGGGLVQPGGSLKLSCATSGFTFSDYYMYWVRQAPGKGLEWVAYINSGGGSTYYPDTVKGRFTISRDNAKNTLYLQMNSLRAEDTAVYYCARRGLPFHAMDYWGQGTLVTVSS
VL: DIQMTQSPSSLSASVGDRVTITCSASQGISNYLNWYQQKPGKAVKLLIYYTSILHSGVPSRFSGSGSGTDYTLTISSLQPEDFATYYCQQFNKLPPTFGGGTKLEIKG
notes: also called hAnti-CD40VH3-LV-hIgG4HC
In the case of B1, the IC50 [1] is reported as 0.83 pM and the IC50 [2] is reported as 1 pM.
